Source: paper PMC2121072 (The Journal of Cell Biology, 1996)

B1: protein 4.1: native protein 4.1 isolated from human RBCs (protein, UniProt P11171 1-864, looked up)
Protein 4.1: MTTEKSLVTEAENSQHQQKEEGEEAINSGQQEPQQEESCQTAAEGDNWCEQKLKASNGDTPTHEDLTKNKERTSESRGLSRLFSSFLKRPKSQVSEEEGKEVESDKEKGEGGQKEIEFGTSLDEEIILKAPIAAPEPELKTDPSLDLHSLSSAETQPAQEELREDPDFEIKEGEGLEECSKIEVKEESPQSKAETELKASQKPIRKHRNMHCKVSLLDDTVYECVVEKHAKGQDLLKRVCEHLNLLEEDYFGLAIWDNATSKTWLDSAKEIKKQVRGVPWNFTFNVKFYPPDPAQLTEDITRYYLCLQLRQDIVAGRLPCSFATLALLGSYTIQSELGDYDPELHGVDYVSDFKLAPNQTKELEEKVMELHKSYRSMTPAQADLEFLENAKKLSMYGVDLHKAKDLEGVDIILGVCSSGLLVYKDKLRINRFPWPKVLKISYKRSSFFIKIRPGEQEQYESTIGFKLPSYRAAKKLWKVCVEHHTFFRLTSTDTIPKSKFLALGSKFRYSGRTQAQTRQASALIDRPAPHFERTASKRASRSLDGAAAVDSADRSPRPTSAPAITQGQVAEGGVLDASAKKTVVPKAQKETVKAEVKKEDEPPEQAEPEPTEAWKVEKTHIEVTVPTSNGDQTQKLAEKTEDLIRMRKKKRERLDGENIYIRHSNLMLEDLDKSQEEIKKHHASISELKKNFMESVPEPRPSEWDKRLSTHSPFRTLNINGQIPTGEGPPLVKTQTVTISDNANAVKSEIPTKDVPIVHTETKTITYEAAQTDDNSGDLDPGVLLTAQTITSETPSSTTTTQITKTVKGGISETRIEKRIVITGDADIDHDQVLVQAIKEAKEQHPDMSVTKVVVHQETEIADE
B2: PTP-H1: tyrosine phosphatase expressed in the baculovirus expression system (protein)
chain: MTSRLRALGGRINNIRTSELPKEKTRSEVICSIHFLDGVVQTFKVTKQDTGQVLLDMVHNHLGVTEKEYFGLQHDDDSVDSPRWLEASKAIRKQLKGGFPCTLHFRVRFFIPDPNTLQQEQTRHLYFLQLKMDICEGRLTCPLNSAVVLASYAVQSHFGDYNSSIHHPGYLSDSHFIPDQNEDFLTKVESLHEQHSGLKQSEAESCYINIARTLDFYGVELHSGRDLHNLDLMIGIASAGVAVYRKYICTSFYPWVNILKISFKRKKFFIHQRQKQAESREHIVAFNMLNYRSCKNLWKSCVEHHTFFQAKKLLPQEKNVLSQYWTMGSRNTKKSVNNQYCKKVIGGMVWNPAMRRSLSVEHLETKSLPSRSPPITPNWRSPRLRHEIRKPRHSSADNLANEMTYITETEDVFYTYKGSLAPQDSDSEVSQNRSPHQESLSENNPAQSYLTQKSSSSVSPSSNAPGSCSPDGVDQQLLDDFHRVTKGGSTEDASQYYCDKNDNGDSYLVLIRITPDEDGKFGFNLKGGVDQKMPLVVSRINPESPADTCIPKLNEGDQIVLINGRDISEHTHDQVVMFIKASRESHSRELALVIRRRAVRSFADFKSEDELNQLFPEAIFPMCPEGGDTLEGSMAQLKKGLESGTVLIQFEQLYRKKPGLAITFAKLPQNLDKNRYKDVLPYDTTRVLLQGNEDYINASYVNMEIPAANLVNKYIATQGPLPHTCAQFWQVVWDQKLSLIVMLTTLTERGRTKCHQYWPDPPDVMNHGGFHIQCQSEDCTIAYVSREMLVTNTQTGEEHTVTHLQYVAWPDHGVPDDSSDFLEFVNYVRSLRVDSEPVLVHCSAGIGRTGVLVTMETAMCLTERNLPIYPLDIVRKMRDQRAMMVQTSSQYKFVCEAILRVYEEGLVQMLDPS

Legend:
PDZ 1+2 module = test: Blot overlay assay; type: binding, human; details: data not shown
[1] = test system: three PDZ domains of hDlg; details: ref Lue et al., 1994; cited from earlier work
[2] = test system: protease-resistant module of hDlg containing PDZ domains 1 and 2; details: ref Lue et al., 1995 [Abstract #1557]; cited from earlier work
GST-hDlg fusion protein = GST-hDlg fusion protein (Homo sapiens, UniProt Q12959); test: Binding of ezrin / PTP-H1 to GST-hDlg; details: PTP-H1 expressed in baculovirus system; data not shown

Molecule	binding of protein 4.1 to PDZ 1+2 module (PDZ 1+2 module)	affinity for three PDZ domains vs 4.1B (I3) domain [1]	binding to protease-resistant module [2]	interaction with GST-hDlg (GST-hDlg fusion protein)
B1	no binding	significantly lower affinity	binds	–
B2	–	–	–	no interaction
